What was measured:
[1] = system: human macrophages; assay: Custom gene array, macrophages with no cytokines, IL-10 or LPS + IFN, in normoxia and hypoxia; assay type: cell-based; settings: for mRNA EXPRESSION (experimental condition) #1: #1 no cytokines/normoxia; for mRNA EXPRESSION (experimental condition) #2: #2 no cytokines/hypoxia; for mRNA EXPRESSION (experimental condition) #3: #3 IL-10/normoxia; for mRNA EXPRESSION (experimental condition) #4: #4 IL-10/hypoxia; for mRNA EXPRESSION (experimental condition) #5: #5 LPS/IFN/normoxia; for mRNA EXPRESSION (experimental condition) #6: #6 LPS/IFN/hypoxia
Summary of the method: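 Cultured macrophages were left untreated or given IL-10 or LPS + IFN, each at 100 ng/ml final, for 6 hr under normoxia or hypoxia (0.1% oxygen). Six conditions in total.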

[2] = system: human breast and ovary tumors; assay: Custom gene array, breast and ovary tumors versus normal adjacent tissue; settings: Table 19; for gene expression level on custom gene array, Breast nor H / gene expression level on custom gene array, Breast nor K / gene expression level on custom gene array, Ovary nor E / gene expression level on custom gene array, Ovary nor F / gene expression level on custom gene array, Ovary nor G: normal adjacent tissue; for gene expression level on custom gene array, Breast nor H / gene expression level on custom gene array, Breast tum H: patient H; for gene expression level on custom gene array, Breast nor K / gene expression level on custom gene array, Breast tum K: patient K; for gene expression level on custom gene array, Breast tum H / gene expression level on custom gene array, Breast tum K / gene expression level on custom gene array, Ovary tum E / gene expression level on custom gene array, Ovary tum F / gene expression level on custom gene array, Ovary tum G: tumor tissue; for gene expression level on custom gene array, Ovary nor E / gene expression level on custom gene array, Ovary tum E: patient E; for gene expression level on custom gene array, Ovary nor F / gene expression level on custom gene array, Ovary tum F: patient F; for gene expression level on custom gene array, Ovary nor G / gene expression level on custom gene array, Ovary tum G: patient G
Summary of the method: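 Tumor versus normal adjacent tissue from 5 patients (ovarian adenocarcinomas, invasive ductal breast carcinomas); for one patient, normal ovary came from a separate age-matched individual. Per-chip normalisation for labelling/hybridization, then per-gene values expressed relative to the gene's median across all samples; differences inferred within each patient.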

[3] = system: primary human cell cultures (11 cell types); assay: Custom gene array, 11 human cell types in normoxia or hypoxia for 6 hr and 18 hr; assay type: cell-based;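 for mRNA expression level, #1 HY 18 hr: cell type #1 is adipocyte from subcutaneous adult adipose tissue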;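 for mRNA expression level, #1 HY 6 hr: cell type #1 is adipocyte from subcutaneous adult adipose tissue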;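 for mRNA expression level, #1 NO: cell type #1 is adipocyte from subcutaneous adult adipose tissue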;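 for mRNA expression level, #2 HY 18 hr: cell type #2 is fetal cardiomyocyte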;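 for mRNA expression level, #2 HY 6 hr: cell type #2 is fetal cardiomyocyte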;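 for mRNA expression level, #2 NO: cell type #2 is fetal cardiomyocyte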;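 for mRNA expression level, #3 HY 6 hr: cell type #3 is human umbilical vein endothelial cells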;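 for mRNA expression level, #3 NO: cell type #3 is human umbilical vein endothelial cells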;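 for mRNA expression level, #4 HY 18 hr: cell type #4 is adult dermal fibroblast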;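 for mRNA expression level, #4 HY 6 hr: cell type #4 is adult dermal fibroblast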;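 for mRNA expression level, #4 NO: cell type #4 is adult dermal fibroblast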;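 for mRNA expression level, #5 HY 6 hr: cell type #5 is adult hepatocyte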;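 for mRNA expression level, #5 NO: cell type #5 is adult hepatocyte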;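 for mRNA expression level, #6 HY 6 hr: cell type #6 is blood-derived macrophage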;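 for mRNA expression level, #6 NO: cell type #6 is blood-derived macrophage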
Summary of the method: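 Eleven primary, unmodified human cell types (one non-primary neuronal type) held in normoxia or hypoxia for 6 hr and 18 hr. RNA hybridised to duplicate or triplicate custom arrays, normalised per array to reference genes. Expression given relative to each gene's median across all conditions.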

[4] = Table 16, referenced to median of the gene over 6 conditions
[5] = Table 15, referenced to the median value of that gene throughout all 6 conditions

B1: p1E4 (nucleic acid, listed as Homo Sapiens)
DNA: AATTATATATTACATGTTTATTAAGAGCACAACTTTTATGTAAAATTTACATTTAATGAAAAAAATCAAAAATATTTACAAAATCTTGGAAGACAGATGTGCATTGTTCTAATTACAATCCAAAGTAGTAAATAACAATCCTTTAAAACTCACATTTATTAGAGTTGTGTTTACAAATTCTTGGTTAAAGAGGCAGCTACAAAGTTTACCACTATATATAAGCAAGAACCAGCTTGCTAGGTACATTTCCCATTGAAAATCTACTGGTCTCTTTTACACCATTAGTGGATTTTTAAATGGAAAAAAAAAATCAATATAAACTCATATGGCTTCAAAATTGTA
modifications: EST array clone
mRNA EXPRESSION (experimental condition) #1 [1, 4]: 1.22 | mRNA EXPRESSION (experimental condition) #2 [1, 4]: 1.13 | mRNA EXPRESSION (experimental condition) #3 [1, 4]: 1.09 | mRNA EXPRESSION (experimental condition) #4 [1, 4]: 0.96 | mRNA EXPRESSION (experimental condition) #5 [1, 4]: 0.40 | mRNA EXPRESSION (experimental condition) #6 [1, 4]: 0.40 | gene expression level on custom gene array, Breast nor H [2]: 1.00 | gene expression level on custom gene array, Breast nor K [2]: 1.06 | gene expression level on custom gene array, Breast tum H [2]: 0.69 | gene expression level on custom gene array, Breast tum K [2]: 0.46 | gene expression level on custom gene array, Ovary nor E [2]: 1.30 | gene expression level on custom gene array, Ovary nor F [2]: 0.88 | gene expression level on custom gene array, Ovary nor G [2]: 0.70 | gene expression level on custom gene array, Ovary tum E [2]: 1.67 | gene expression level on custom gene array, Ovary tum F [2]: 0.65 | gene expression level on custom gene array, Ovary tum G [2]: 0.17 | mRNA expression level, #1 HY 6 hr ([3]; cell type #1, hypoxia 6 hr): 0.51 | mRNA expression level, #1 HY 18 hr ([3]; cell type #1, hypoxia 18 hr): 0.79 | mRNA expression level, #1 NO ([3]; cell type #1, normoxia): 0.65 | mRNA expression level, #2 HY 6 hr ([3]; cell type #2, hypoxia 6 hr): 1.24 | mRNA expression level, #2 HY 18 hr ([3]; cell type #2, hypoxia 18 hr): 1.18 | mRNA expression level, #2 NO ([3]; cell type #2, normoxia): 1.06 | mRNA expression level, #3 HY 6 hr ([3]; cell type #3, hypoxia 6 hr): 1.57 | mRNA expression level, #3 HY 18 hr ([3]; cell type #3, hypoxia 18 hr): 1.70 | mRNA expression level, #3 NO ([3]; cell type #3, normoxia): 1.59 | mRNA expression level, #4 HY 6 hr ([3]; cell type #4, hypoxia 6 hr): 0.76 | mRNA expression level, #4 HY 18 hr ([3]; cell type #4, hypoxia 18 hr): 0.91 | mRNA expression level, #4 NO ([3]; cell type #4, normoxia): 0.80 | mRNA expression level, #5 HY 6 hr ([3]; cell type #5, hypoxia 6 hr): 0.39 | mRNA expression level, #5 NO ([3]; cell type #5, normoxia): 0.34 | mRNA expression level, #6 HY 6 hr ([3]; cell type #6, hypoxia 6 hr): 1.13 | #6 HY 18 hr (mRNA expression level) ([3]; cell type #6, hypoxia 18 hr): 1.21 | mRNA expression level, #6 NO ([3]; cell type #6, normoxia): 0.97 | #7 HY 6 hr (mRNA expression level) ([3]; cell type #7, hypoxia 6 hr): 1.17 | #7 HY 18 hr (mRNA expression level) ([3]; cell type #7, hypoxia 18 hr): 0.82 | #7 NO (mRNA expression level) ([3]; cell type #7, normoxia): 1.65 | #8 HY 6 hr (mRNA expression level) ([3]; cell type #8, hypoxia 6 hr): 1.28 | #8 HY 18 hr (mRNA expression level) ([3]; cell type #8, hypoxia 18 hr): 1.71 | #8 NO (mRNA expression level) ([3]; cell type #8, normoxia): 0.74 | #9 HY 6 hr (mRNA expression level) ([3]; cell type #9, hypoxia 6 hr): 0.97 | #9 HY 18 hr (mRNA expression level) ([3]; cell type #9, hypoxia 18 hr): 0.93 | #9 NO (mRNA expression level) ([3]; cell type #9, normoxia): 0.95 | #10 HY 6 hr (mRNA expression level) ([3]; cell type #10, hypoxia 6 hr): 1.35 | #10 HY 18 hr (mRNA expression level) ([3]; cell type #10, hypoxia 18 hr): 1.44 | #10 NO (mRNA expression level) ([3]; cell type #10, normoxia): 0.78 | #11 HY 6 hr (mRNA expression level) ([3]; cell type #11, hypoxia 6 hr): 1.48 | #11 HY 18 hr (mRNA expression level) ([3]; cell type #11, hypoxia 18 hr): 1.35 | #11 NO (mRNA expression level) ([3]; cell type #11, normoxia): 1.30 | HIGHEST FOLD CHANGE IN HYPOXIA (hr hypoxia + cell type) ([3]; hypoxia/normoxia induction ratio, 18 hr monocyte): 2.31 (18 hr monocyte) fold

B2: p1F24 (nucleic acid, listed as Homo Sapiens)
DNA: ATGAACTGGCATCTCCCCCTCTTCCTCTTGGCCTCTGTGACGCTGCCTTCCATCTGCTCCCACTTCAATCCTCTGTCTCTCGAGGAACTAGGCTCCAACACGGGGATCCAGGTTTTCAATCAGATTGTGAAGTCGAGGCCTCATGACAACATCGTGATCTCTCCCCATGGGATTGCGTCGGTCCTGGGGATGCTTCAGCTGGGGGCGGACGGCAGGACCAAGAAGCAGCTCGCCATGGTGATGAGATACGGCGTAAATGGAGTTGGTAAAATATTAAAGAAGATCAACAAGGCCATCGTCTCCAAGAAGAATAAAGACATTGTGACAGTGGCTAACGCCGTGTTTGTTAAGAATGCCTCTGAAATTGAAGTGCCTTTTGTTACAAGGAACAAAGATGTGTTCCAGTGTGAGGTCCGGAATGTGAACTTTGAGGATCCAGCCTCTGCCTGTGATTCCATCAATGCATGGGTTAAAAACGAAACCAGGGATATGATTGACAATCTGCTGTCCCCAGATCTTATTGATGGTGTGCTCACCAGACTGGTCCTCGTCAACGCAGTGTATTTCAAGGGTCTGTGGAAATCACGGTTCCAACCCGAGAACACAAAGAAACGCACTTTCGTGGCAGCCGACGGGAAATCCTATCAAGTGCCAATGCTGGCCCAGCTCTCCGTGTTCCGGTGTGGGTCGACAAGTGCCCCCAATGATTTATGGTACAACTTCATTGAACTGCCCTACCACGGGGAAAGCATCAGCATGCTGATTGCACTGCCGACTGAGAGCTCCACTCCGCTGTCTGCCATCATCCCACACATCAGCACCAAGACCATAGACAGCTGGATGAGCATCATGGTCCCCAAGAGGGTGCAGGTGATCCTGCCCAAGTTCACAGCTGTAGCACAAACAGATTTGAAGGAGCCGCTGAAAGTTCTTGGCATTACTGACATGTTTGATTCATCAAAGGCAAATTTTGCAAAAATAACAAGGTCAGAAAACCTCCATGTTTCTCATATCTTGCAAAAAGCAAAAATTGAAGTCAGTGAAGATGGAACCAAAGCTTCAGCAGCAACAACTGCAATTCTCATTGCAAGATCATCGCCTCCCTGGTTTATAGTAGACAGACCTTTTCTGTTTTTCATCCGACATAATCCTACAGGTGCTGTGTTATTCATGGGGCAGATAAACAAACCC
mRNA EXPRESSION (experimental condition) #1 [1, 5]: 0.65 | mRNA EXPRESSION (experimental condition) #2 [1, 5]: 0.68 | mRNA EXPRESSION (experimental condition) #3 [1, 5]: 0.99 | mRNA EXPRESSION (experimental condition) #4 [1, 5]: 1.10 | mRNA EXPRESSION (experimental condition) #5 [1, 5]: 1.62 | mRNA EXPRESSION (experimental condition) #6 [1, 5]: 1.80 | gene expression level on custom gene array, Breast nor H [2]: 1.64 | gene expression level on custom gene array, Breast nor K [2]: 1.25 | gene expression level on custom gene array, Breast tum H [2]: 1.89 | gene expression level on custom gene array, Breast tum K [2]: 0.96 | gene expression level on custom gene array, Ovary nor E [2]: 3.17 | gene expression level on custom gene array, Ovary nor F [2]: 3.24 | gene expression level on custom gene array, Ovary nor G [2]: 1.26 | gene expression level on custom gene array, Ovary tum E [2]: 0.93 | gene expression level on custom gene array, Ovary tum F [2]: 0.85 | gene expression level on custom gene array, Ovary tum G [2]: 0.80 | mRNA expression level ([3]; cell type #1, HY (hypoxia) 6 hr): 0.70 | mRNA expression level ([3]; cell type #1, HY (hypoxia) 18 hr): 1.01 | mRNA expression level ([3]; cell type #1, NO (normoxia)): 1.17 | mRNA expression level ([3]; cell type #2, HY (hypoxia) 6 hr): 5.52 | mRNA expression level ([3]; cell type #2, HY (hypoxia) 18 hr): 8.15 | mRNA expression level ([3]; cell type #2, NO (normoxia)): 9.63 | mRNA expression level ([3]; cell type #3, HY (hypoxia) 6 hr): 0.87 | mRNA expression level ([3]; cell type #3, HY (hypoxia) 18 hr): 0.56 | mRNA expression level ([3]; cell type #3, NO (normoxia)): 0.56 | mRNA expression level ([3]; cell type #4, HY (hypoxia) 6 hr): 11.5 | mRNA expression level ([3]; cell type #4, HY (hypoxia) 18 hr): 14.2 | mRNA expression level ([3]; cell type #4, NO (normoxia)): 12.8 | mRNA expression level ([3]; cell type #5, HY (hypoxia) 6 hr): 0.15 | mRNA expression level ([3]; cell type #5, NO (normoxia)): 0.12 | mRNA expression level ([3]; cell type #6, HY (hypoxia) 6 hr): 0.14 | mRNA expression level ([3]; cell type #6, NO (normoxia)): 0.11

— US20030203372A1, “Analysis method” (priority 2000, published 2003)
